Tests used:
Human glu-plasminogen = assay: ELISA; details: 5 μg/ml immobilized CbiA protein, 10 μg/ml plasminogen, polyclonal antibody 1:1,000, read off a plot
[1] = target: His6-tagged CbiA of B. miyamotoi (B. miyamotoi); assay: ELISA; CbiA (5 μg/ml) immobilised, increasing concentrations of plasminogen; non-linear regression, one-site specific binding model; apparent dissociation constant
[2] = target: His6-tagged CbiA of B. miyamotoi (B. miyamotoi); assay: ELISA; proteins (5 μg/ml) immobilised, plasminogen in the presence of increasing concentrations of the lysine analog tranexamic acid; binding without tranexamic acid set to 100%
[3] = target: His6-tagged CbiA of B. miyamotoi (B. miyamotoi); assay: ELISA; proteins (5 μg/ml) immobilised, plasminogen in the presence of increasing concentrations of NaBr; binding without NaBr set to 100%

Row | Substance | response (Absorbance at 490 nm) (Human glu-plasminogen; parent: est. 0.72) | response (Absorbance at 490 nm) (Human glu-plasminogen; parent: est. 0.78) | further results
1 | His6-tagged CbiA of B. miyamotoi K153A | 1.1 |  | 
2 | His6-tagged CbiA of B. miyamotoi K153A; K154A; K162A; K188A | 1 |  | 
3 | His6-tagged CbiA of B. miyamotoi K154A | 0.83 |  | 
4 | His6-tagged CbiA of B. miyamotoi K154A; K162A | 0.9 |  | 
5 | His6-tagged CbiA of B. miyamotoi K154A; K162A; K188A | 1 |  | 
6 | His6-tagged CbiA of B. miyamotoi K154A; R156A |  | 0.58 | 
7 | His6-tagged CbiA of B. miyamotoi K162A | 1 |  | 
8 | His6-tagged CbiA of B. miyamotoi K188A | 0.81 |  | 
9 | His6-tagged CbiA of B. miyamotoi R145A |  | 0.66 | 
10 | His6-tagged CbiA of B. miyamotoi R156A |  | 0.6 | 
11 | His6-tagged CbiA of B. miyamotoi R163A |  | 0.74 | 
12 | His6-tagged CbiA of B. miyamotoi R185A |  | 0.81 | 
13 | Human glu-plasminogen (natural protein) |  |  | Kd [1]: 347 nM; percent decrease of binding with 0.1 mM tranexamic acid [2]: > 17%; percent of binding at 10 mM tranexamic acid (without tranexamic acid = 100%) [2]: 48%; percent of binding at 250 mM NaBr (without NaBr = 100%) [3]: 43%
